Reference: patent publication US20260201355A1 (GENKORE, published 2026)

Target: the molecule itself
Test: size exclusion chromatography (Superdex 200) of the CWCas12f-gRNA ribonucleoprotein complex
Protocol: Using the method for production of ribonucleoprotein particles in Example 1.7, the CWCas12f protein was incubated with the gRNA to produce a ribonucleoprotein complex. The ribonucleoprotein complex was analyzed by size exclusion chromatography using a Superdex 200 column.

B1: CWCas12f protein (enzyme)
chain: MGEKSSRRRRNGKSGAWTAAITSCVGGKMAKNTITKTLKLRIVRPYNSAEVEKIVADEKNNREKIALEKNKDKVKEACSKHLKVAAYCTTQVERNACLFCKARKLDDKFYQKLRGQFPDAVFWQEISEIFRQLQKQAAEIYNQSLIELYYEIFIKGKGIANASSVEHYLSDVCYTRAAELFKNAAIASGLRSKIKSNFRLKELKNMKSGLPTTKSDNFPIPLVKQKGGQYTGFEISNHNSDFIIKIPFGRWQVKKEIDKYRPWEKFDFEQVQKSPKPISLLLSTQRRKRNKGWSKDEGTEAEIKKVMNGDYQTSYIEVKRGSKIGEKSAWMLNLSIDVPKIDKGVDPSIIGGIDVGVKSPLVCAINNAFSRYSISDNDLFHFNKKMFARRRILLKKNRHKRAGHGAKNKLKPITILTEKSERFRKKLIERWACEIADFFIKNKVGTVQMENLESMKRKEDSYFNIRLRGFWPYAEMQNKIEFKLKQYGIEIRKVAPNNTSKTCSKCGHLNNYFNFEYRKKNKFPHFKCEKCNFKENADYNAALNISNPKLKSTKEEP
notes: Recombinant protein purified from E. coli and incubated with engineered sgRNA to form the ribonucleoprotein before size exclusion chromatography; The complex also contains the sgRNA, which is not a protein; also called TnpB; wild-type CWCas12f
  binding result: binds
